Values belong to the binder of their own block, whether it stands above or below them.
Tests used:
[1] = target: T1, hu HIL6 AFH monomer (human); assay: SPR Biacore T100, binder captured by anti-human Fc
T1 chain: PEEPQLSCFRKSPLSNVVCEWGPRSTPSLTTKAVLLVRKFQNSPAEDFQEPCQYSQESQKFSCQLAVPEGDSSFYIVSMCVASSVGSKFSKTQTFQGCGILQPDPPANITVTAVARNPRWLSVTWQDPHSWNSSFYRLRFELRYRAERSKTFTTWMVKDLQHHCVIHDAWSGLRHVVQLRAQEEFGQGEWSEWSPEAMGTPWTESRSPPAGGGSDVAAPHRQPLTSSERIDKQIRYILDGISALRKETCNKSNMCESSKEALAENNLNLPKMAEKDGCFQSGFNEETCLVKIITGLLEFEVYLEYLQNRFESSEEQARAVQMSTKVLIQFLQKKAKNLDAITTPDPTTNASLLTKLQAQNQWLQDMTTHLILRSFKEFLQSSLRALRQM

[2] = target: T2, hu HIL6 Fc dimer (dimeric human HIL6/mouse IgG Fc fusion protein) (human); assay: SPR Biacore T100, binder captured by anti-human Fc
T2 construct: also called human hyper-IL6 (IL6R-IL6-mIgG); dimeric HIL6
T2 chain: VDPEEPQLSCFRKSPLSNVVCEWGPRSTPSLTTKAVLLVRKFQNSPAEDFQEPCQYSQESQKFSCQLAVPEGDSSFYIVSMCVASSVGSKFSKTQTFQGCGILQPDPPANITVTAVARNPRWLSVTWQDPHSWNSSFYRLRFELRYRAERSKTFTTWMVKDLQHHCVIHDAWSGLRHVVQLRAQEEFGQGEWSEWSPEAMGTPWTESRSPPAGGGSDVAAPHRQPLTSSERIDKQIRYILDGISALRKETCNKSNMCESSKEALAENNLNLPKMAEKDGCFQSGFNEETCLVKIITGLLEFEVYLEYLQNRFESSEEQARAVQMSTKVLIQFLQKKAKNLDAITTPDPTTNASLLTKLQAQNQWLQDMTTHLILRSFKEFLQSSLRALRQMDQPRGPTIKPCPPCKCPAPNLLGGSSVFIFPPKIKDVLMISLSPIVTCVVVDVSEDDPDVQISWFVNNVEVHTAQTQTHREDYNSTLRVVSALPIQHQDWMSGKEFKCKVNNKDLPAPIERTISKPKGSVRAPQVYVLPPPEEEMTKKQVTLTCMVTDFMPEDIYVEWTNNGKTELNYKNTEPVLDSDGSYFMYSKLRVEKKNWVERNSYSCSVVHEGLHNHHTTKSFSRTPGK

[3] = target: T3, recombinant human IL6 (human, UniProt P05231 30-212); assay: SPR Biacore T100, binder captured by anti-human Fc
T3 construct: also called rhIL6; IL6 monomer

[4] = target: T4, sIL6R Fc dimer (UniProt P08887 20-358, limits assumed); assay: SPR Biacore T100, binder captured by anti-human Fc
T4 construct: not shown: Fc
T4 sequence (looked up): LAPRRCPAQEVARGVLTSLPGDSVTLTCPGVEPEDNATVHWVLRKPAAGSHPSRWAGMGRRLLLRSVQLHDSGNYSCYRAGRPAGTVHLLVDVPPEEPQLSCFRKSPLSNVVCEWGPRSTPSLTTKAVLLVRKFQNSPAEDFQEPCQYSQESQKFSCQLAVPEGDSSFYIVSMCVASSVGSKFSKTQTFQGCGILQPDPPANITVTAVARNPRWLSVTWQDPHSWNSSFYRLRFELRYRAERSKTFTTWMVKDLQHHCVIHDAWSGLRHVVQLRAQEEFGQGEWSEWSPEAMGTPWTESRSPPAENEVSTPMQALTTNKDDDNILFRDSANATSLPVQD

[5] = target: T3, recombinant human IL6; assay: SPR Biacore, mAb captured by anti-mouse Fc, single cycle kinetics
[6] = target: T5, Hyper-IL6 (human); assay: SPR Biacore, mAb captured by anti-mouse Fc, HIL6 injected
T5 chain: T1 chain

[7] = target: T5, Hyper-IL6; assay: SPR Biacore, binder captured by anti-human Fc, HIL6 injected
Description: (§1) Anti-IL6 binding domains were captured using immobilized anti-mouse Fc polyclonal antibody in the case of anti-IL6 antibodies, or an anti-human Fc monoclonal in the case of SMIPs, Xceptors, and humanized SMIPs. IL6 binding to the anti-IL6 binding domains was studied using single cycle kinetics. Five sequential injections of IL6 were made per cycle starting with the lowest concentration of IL6 (6.4 pM) and progressing to the highest concentration (4,000 pM). The flow rate was 45 μL per minute and each injection of IL6 lasted 7 minutes. At the end of the highest IL6 concentration injection, IL6 was allowed to dissociate for 30 minutes. The data were fit to a one-to-one binding single cycle kinetics model. HIL6 binding was studied by injecting a single concentration of HIL6 (from 6.4-4,000 pM) per cycle for 7 minutes, and then allowing the bound HIL6 to dissociate for either 30 seconds (0 to 800 pM) or one hour (0 and 4,000 pM). […] All analysis was performed using BIAevaluation software.

[8] = target: T3, recombinant human IL6; assay: SPR Biacore, binder captured by anti-human Fc, single cycle kinetics
Description: as §1

- Kd [1]: 190 nM
- Kd [2]: 270 nM
- binding result [3]: no binding (tested: 100 nM)
- binding result [4]: no binding (tested: 100 nM)
B1: TRU(XT6)-1013 (Fc fusion)
chain: LPAQVAFTPYAPEPGSTCRLREYYDQTAQMCCSKCSPGQHAKVFCTKTSDTVCDSCEDSTYTQLWNWVPECLSCGSRCSSDQVETQACTREQNRICTCRPGWYCALSKQEGCRLCAPLRKCRPGFGVARPGTETSDVVCKPCAPGTFSNTTSSTDICRPHQICNVVAIPGNASMDAVCTSTSPTRSMAPGAVHLPQPVSTRSQHTQPTPEPSTAPSTSFLLPMGPSPPAEGSTGDTGEPKSSDKTHTCPPCPAPEAAGAPSVFLFPPKPKDTLMISRTPEVTCVVVDVSHEDPEVKFNWYVDGVEVHNAKTKPREEQYNSTYRVVSVLTVLHQDWLNGKAYACAVSNKALPAPIEKTISKAKGQPREPQVYTLPPSRDELTKNQVSLTCLVKGFYPSDIAVEWESNGQPENNYKTTPPVLDSDGSFFLYSKLTVDKSRWQQGNVFSCSVMHEALHNHYTQKSLSLSPGQRHNNSSLNTRTQKARHSPNSEVQLLESGGGLVQPGGSLRLSCAASGFTFSGYVMGWVRQAPGKGLEWVSSISPSGGYTLYADSVKGRFTISRDNSKNTLYLQMNSLRAEDTAVYYCARAFSTRWYWGAFDIWGQGTMVTVSSGGGGSGGGGSGGGGSQDIQMTQSPATLSLSPGERATLSCRASQSVRSYLAWYQQKPGQAPRLLIYDASNRATGIPARFSGSGSGTDFTLTITSLQPEDIATYYCQQYDNLPLTFGGGTKVEIK
notes: Xceptor, TNFRSF1B ectodomain N-terminal, anti-IL6xR domain C-terminal

- Kd [5]: 0.022 nM
- koff [5]: 5e-05 s⁻¹
- kon [5]: 2.3e+06 M⁻¹ s⁻¹
B2: CLB-8 mAb (antibody, V domains shown)
VH: EVQLVESGGKLLKPGGSLKLSCAASGFTFSSFAMSWFRQSPEKRLEWVAEISSGGSYTYYPDTVTGRFTISRDNAKNTLYLEMSSLRSEDTAMYYCARGLWGYYALDYWGQGTSVTVSS
VL: QIVLIQSPAIMSASPGEKVTMTCSASSSVSYMYWYQQKPGSSPRLLIYDTSNLASGVPVRFSGSGSGTSYSLTISRMEAEDAATYYCQQWSGYPYTFGGGTKLEIKR

- Kd [1]: 6.3 nM
- Kd [2]: 25 nM
- binding result [3]: no binding (tested: 100 nM)
B3: TRU(XT6)-1025 (Fc fusion)
chain: LPAQVAFTPYAPEPGSTCRLREYYDQTAQMCCSKCSPGQHAKVFCTKTSDTVCDSCEDSTYTQLWNWVPECLSCGSRCSSDQVETQACTREQNRICTCRPGWYCALSKQEGCRLCAPLRKCRPGFGVARPGTETSDVVCKPCAPGTFSNTTSSTDICRPHQICNVVAIPGNASMDAVCTSTSPTRSMAPGAVHLPQPVSTRSQHTQPTPEPSTAPSTSFLLPMGPSPPAEGSTGDTGEPKSSDKTHTCPPCPAPEAAGAPSVFLFPPKPKDTLMISRTPEVTCVVVDVSHEDPEVKFNWYVDGVEVHNAKTKPREEQYNSTYRVVSVLTVLHQDWLNGKAYACAVSNKALPAPIEKTISKAKGQPREPQVYTLPPSRDELTKNQVSLTCLVKGFYPSDIAVEWESNGQPENNYKTTPPVLDSDGSFFLYSKLTVDKSRWQQGNVFSCSVMHEALHNHYTQKSLSLSPGQRHNNSSLNTRTQKARHSPNSEVQLLESGGGLVQPGGSLRLSCAASGFTFSHYGMHWVRQAPGKGLEWVSSIYPGMTQYADSVKGRFTISRDNSKNTLYLQMNSLRAEDTAVYYCARDRGSGIDAFDIWGQGTMVTVSSGGGGSGGGGSGGGGSQSELTQPPSVSVSPGQTATVSCSGEKLGDRYAWWYQQKAGQSPVLVIYQDTKRPSGVPDRFSGSNSGTSASLVISGPQSEDEADYYCAAWDDSLKGVVFGGGSKLTVL
notes: as for B1

- Kd [6]: 0.012 nM
- koff [6]: 2.4e-05 s⁻¹
- kon [6]: 2e+06 M⁻¹ s⁻¹
- Kd [5]: 0.007 nM
- koff [5]: 2.2e-05 s⁻¹
- kon [5]: 3.2e+06 M⁻¹ s⁻¹
B4: AH-65 mAb (antibody, V domains shown)
VH: EVQLVESGGGLVQPKGTLRLSCAASGFSFNTYAMNWVRQAPGKSLEWVARTVTKSNKYATYYADSVSDRVTISREDSQSMLYLQMTNLKTEDTAMYYCVREDYYGTLDYWGQGTSVTVSS
VL: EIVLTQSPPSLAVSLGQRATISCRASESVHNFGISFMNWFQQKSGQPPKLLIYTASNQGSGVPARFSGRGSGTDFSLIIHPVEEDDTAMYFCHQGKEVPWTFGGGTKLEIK

- Kd [1]: 3000 nM
- Kd [2]: 49 nM
- binding result [3]: no binding (tested: 100 nM)
- binding result [4]: no binding (tested: 100 nM)
B5: TRU(XT6)-1029 (Fc fusion)
chain: LPAQVAFTPYAPEPGSTCRLREYYDQTAQMCCSKCSPGQHAKVFCTKTSDTVCDSCEDSTYTQLWNWVPECLSCGSRCSSDQVETQACTREQNRICTCRPGWYCALSKQEGCRLCAPLRKCRPGFGVARPGTETSDVVCKPCAPGTFSNTTSSTDICRPHQICNVVAIPGNASMDAVCTSTSPTRSMAPGAVHLPQPVSTRSQHTQPTPEPSTAPSTSFLLPMGPSPPAEGSTGDTGEPKSSDKTHTCPPCPAPEAAGAPSVFLFPPKPKDTLMISRTPEVTCVVVDVSHEDPEVKFNWYVDGVEVHNAKTKPREEQYNSTYRVVSVLTVLHQDWLNGKAYACAVSNKALPAPIEKTISKAKGQPREPQVYTLPPSRDELTKNQVSLTCLVKGFYPSDIAVEWESNGQPENNYKTTPPVLDSDGSFFLYSKLTVDKSRWQQGNVFSCSVMHEALHNHYTQKSLSLSPGQRHNNSSLNTRTQKARHSPNSEVQLLESGGGLVQPGGSLRLSCAASGFTFSSYWMHWVRQAPGKGLEWVSSIYPSGGSTEYADSVKGRFTISRDNSKNTLYLQMNSLRAEDTAVYYCAKGIWFDPWGQGTLVTVSSGGGGSGGGGSGGGGSQDIQMTQSPATLSASVGDRVTITCRSSQRISGYLNWYQQQPGKAPKLLIYAASTLQSGVPSRISGSGSGTDFSLIISSLQPEDVATYYCQQSYSPPFTFGQGTKVEIK
notes: as for B1

- Kd [7]: 0.05 nM
- koff [7]: 0.00018 s⁻¹
- kon [7]: 3.6e+06 M⁻¹ s⁻¹
- Kd [8]: 0.051 nM
- koff [8]: 0.00019 s⁻¹
- kon [8]: 3.9e+06 M⁻¹ s⁻¹
B6: TRU(S6)-1063 (Fc fusion)
VH: EVQLVESGGGLVQPGGSLRLSCAASGFTFNTYAMNWVRQAPGKGLEWVGRTVTKSNKYATYYADSVSDRFTISRDDSKNSLYLQMNSLKTEDTAVYYCAREDYYGTLDYWGQGTLVTVSS
VL: EIVLTQSPATLSLSPGERATLSCRASESVHNFGISFMNWYQQKPGQAPRLLIYTASNQGSGIPARFSGSGSGTDFTLTISSLEPEDFAVYYCHQGKEVPWTFGQGTKVEIK
notes: Humanized SMIP fusion protein (single chain)

- Kd [7]: 0.046 nM
- koff [7]: 0.00019 s⁻¹
- kon [7]: 4.1e+06 M⁻¹ s⁻¹
- Kd [8]: 0.048 nM
- koff [8]: 0.0002 s⁻¹
- kon [8]: 4.2e+06 M⁻¹ s⁻¹
B7: TRU(S6)-1064 (Fc fusion)
VH: B6 VH
VL: DIVLTQSPASLAVSPGQRATITCRASESVHNFGISFMNWYQQKPGQPPKLLIYTASNQGSGVPARFSGSGSGTDFTLTINPVEANDTANYYCHQGKEVPWTFGQGTKVEIK
notes: as for B6

- Kd [6]: 0.444 nM
- koff [6]: 0.00096 s⁻¹
- kon [6]: 2.2e+06 M⁻¹ s⁻¹
- Kd [5]: 0.41 nM
- koff [5]: 0.002 s⁻¹
- kon [5]: 4.8e+06 M⁻¹ s⁻¹
B8: BSF2-77 mAb (antibody, V domains shown)
VH: QVQLQQPGAELVKPGASVKLSCKASGYIFTSYWMHWVKQRPGQGLEWIGEINPSNGRTNYNERFKSKATLTVDKSSSTAYIQLSSLTSDDSAVYYCSRSDTKATCDYWGQGTTLTVSS
VL: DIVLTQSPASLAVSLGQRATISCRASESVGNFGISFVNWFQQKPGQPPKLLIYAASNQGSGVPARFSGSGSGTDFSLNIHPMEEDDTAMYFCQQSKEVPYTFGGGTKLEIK
